Results taken from paper PMC12571865, “Profiling of HIV-1 elite neutralizer cohort reveals a CD4bs bnAb for HIV-1 prevention and therapy” (Nature immunology, 2025).

Molecular target: T1, BG505 SOSIP.664 Env trimer (preparation for cryo-EM) (HIV-1 (strain BG505), UniProt Q2N0S6)
T1 construct: also called BG505_(SOSIP) trimer; source: Expi293F, transient co-transfection with a furin-encoding plasmid; copies: 3 + 3
Experiment: cryo-EM structure; Fab–trimer complexes in TBS, incubated overnight at room temperature: 04_A06–PGDM1400–BG505 at 3.6:1.2:1 (Fab:Fab:trimer), purified on Superose-6 Increase; 01_D03–BG505 and 05_B08–BG505 at 3.6:1 (Fab:trimer) without further SEC
Conditions: both partners purified

B1: PGDM1400 Fab (Fab, V domains shown)
VH: QAQLVQSGPEVRKPGTSVKVSCKAPGNTLKTYDLHWVRSVPGQGLQWMGWISHEGDKKVIVERFKAKVTIDWDRSTNTAYLQLSGLTSGDTAVYYCAKGSKHRLRDYALYDDDGALNWAVDVDYLSNLEFWGQGTAVTVSS
VL: DFVLTQSPHSLSVTPGESASISCKSSHSLIHGDRNNYLAWYVQKPGRSPQLLIYLASSRASGVPDRFSGSGSDKDFTLKISRVETEDVGTYYCMQGRESPWTFGQGTKVDIK
stoichiometry N: 1 Fab per trimer
